Assay in all cases: MST
One series relates to GST-ZCCHC3.
Another series deals with GST-ZCCHC3;GST-cGAS.
Series [1] has as its system GST-cGAS.
The target in series [2] is T1, GST-cGAS (UniProt Q8N884 1-522).
T1 construct: also called recombinant cGAS
The note with it: both partners purified.

T1 sequence (Q8N884 whole entry): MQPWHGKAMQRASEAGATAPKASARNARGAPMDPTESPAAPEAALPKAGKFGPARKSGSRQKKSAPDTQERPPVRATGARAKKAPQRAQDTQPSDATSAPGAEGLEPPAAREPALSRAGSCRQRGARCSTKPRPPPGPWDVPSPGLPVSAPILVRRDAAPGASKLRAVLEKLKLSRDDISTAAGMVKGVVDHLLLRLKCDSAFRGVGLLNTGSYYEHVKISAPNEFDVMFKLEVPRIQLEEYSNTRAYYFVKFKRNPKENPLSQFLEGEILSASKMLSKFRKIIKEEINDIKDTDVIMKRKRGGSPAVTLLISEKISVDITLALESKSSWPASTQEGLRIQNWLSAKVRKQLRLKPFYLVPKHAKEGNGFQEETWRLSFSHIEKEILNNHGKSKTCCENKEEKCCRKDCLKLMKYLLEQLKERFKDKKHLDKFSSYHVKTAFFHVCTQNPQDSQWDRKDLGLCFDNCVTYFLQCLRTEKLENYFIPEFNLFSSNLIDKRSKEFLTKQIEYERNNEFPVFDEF

For the molecule HSV60, the Kd in the series with GST-ZCCHC3 was 866 nM; in the series with GST-ZCCHC3;GST-cGAS it was 7.62 nM; with GST-cGAS [1], 600 nM.

B1: GST-ZCCHC3 (natural protein, UniProt Q9NUD5 1-403, looked up)
chain: MATGGGAEEERKRGRPQLLPPARPAARGEEADGGREKMGWAQVVKNLAEKKGEFREPRPPRREEESGGGGGSAGLGGPAGLAAPDLGDFPPAGRGDPKGRRRDPAGEAVDPRKKKGAAEAGRRKKAEAAAAAMATPARPGEAEDAAERPLQDEPAAAAGPGKGRFLVRICFQGDEGACPTRDFVVGALILRSIGMDPSDIYAVIQIPGSREFDVSFRSAEKLALFLRVYEEKREQEDCWENFVVLGRSKSSLKTLFILFRNETVDVEDIVTWLKRHCDVLAVPVKVTDRFGIWTGEYKCEIELRQGEGGVRHLPGAFFLGAERGYSWYKGQPKTCFKCGSRTHMSGSCTQDRCFRCGEEGHLSPYCRKGIVCNLCGKRGHAFAQCPKAVHNSVAAQLTGVAGH
modifications: lysine residues labelled with a Blue-NHS labeling kit, dye:protein molar ratio of 3
notes: also called recombinant ZCCHC3
Consider B1, for which binding in the series with GST-cGAS [2] was put at a Kd of 79.6 ± 12.5 nM.

Broadly, the Kd is a measure of binding affinity in units of concentration.

Source of the values: publication PMC6105683 (Nature Communications, 2018).
